In this assay the target is Slit-N fused to alkaline phosphatase (Drosophila). Description: alkaline phosphatase fusion binding assay on beads.

The text below walks through data of PMC4699798 (Cell, 2015).

B1: Dscam1 EC4 fused to Fc (Fc fusion)
chain: ANPPDADQKGPVFLKEPTNRIDFSNSTGAEIECKASGNPMPEIIWIRSDGTAVGDVPGLRQISSDGKLVFPPFRAEDYRQEVHAQVYACLARNQFGSIISRDVHVRAVVAQYYEADVNKEHVIRGNSAVIKCLIPSFVADFVEVVSWHTDEEENYFPGAEYDGKYLVLPSGELHIREVGPEDGYKSYQCRTKHRLTGETRLSATKGRLVITEPVSSSPPKINALTYKPNIVESMASTAILCPAQGYPAPSFRWYKFIEGTTRKQAVVLNDRVKQVSGTLIIKDAVVEDSGKYLCVVNNSVGGESVETVLTVTAPLSAKIDPPTQTVDFGRPAVFTCQYTGNPIKTVSWMKDGKAIGHSEPVLRIESVKKEDKGMYQCFVRNDQESAEASAELK
As usually defined, the Kd is the equilibrium constant for the complex coming apart. A high value points to weaker binding. Molecule B1 returned a Kd of 22.2 ± 2.85 nM.
